Values quoted from earlier work in paper PMC8131754.

Target: SRC-2 coactivator peptide (Homo sapiens) (UniProt Q15596)
Chain of UniProt Q15596 (Q15596 2-1464): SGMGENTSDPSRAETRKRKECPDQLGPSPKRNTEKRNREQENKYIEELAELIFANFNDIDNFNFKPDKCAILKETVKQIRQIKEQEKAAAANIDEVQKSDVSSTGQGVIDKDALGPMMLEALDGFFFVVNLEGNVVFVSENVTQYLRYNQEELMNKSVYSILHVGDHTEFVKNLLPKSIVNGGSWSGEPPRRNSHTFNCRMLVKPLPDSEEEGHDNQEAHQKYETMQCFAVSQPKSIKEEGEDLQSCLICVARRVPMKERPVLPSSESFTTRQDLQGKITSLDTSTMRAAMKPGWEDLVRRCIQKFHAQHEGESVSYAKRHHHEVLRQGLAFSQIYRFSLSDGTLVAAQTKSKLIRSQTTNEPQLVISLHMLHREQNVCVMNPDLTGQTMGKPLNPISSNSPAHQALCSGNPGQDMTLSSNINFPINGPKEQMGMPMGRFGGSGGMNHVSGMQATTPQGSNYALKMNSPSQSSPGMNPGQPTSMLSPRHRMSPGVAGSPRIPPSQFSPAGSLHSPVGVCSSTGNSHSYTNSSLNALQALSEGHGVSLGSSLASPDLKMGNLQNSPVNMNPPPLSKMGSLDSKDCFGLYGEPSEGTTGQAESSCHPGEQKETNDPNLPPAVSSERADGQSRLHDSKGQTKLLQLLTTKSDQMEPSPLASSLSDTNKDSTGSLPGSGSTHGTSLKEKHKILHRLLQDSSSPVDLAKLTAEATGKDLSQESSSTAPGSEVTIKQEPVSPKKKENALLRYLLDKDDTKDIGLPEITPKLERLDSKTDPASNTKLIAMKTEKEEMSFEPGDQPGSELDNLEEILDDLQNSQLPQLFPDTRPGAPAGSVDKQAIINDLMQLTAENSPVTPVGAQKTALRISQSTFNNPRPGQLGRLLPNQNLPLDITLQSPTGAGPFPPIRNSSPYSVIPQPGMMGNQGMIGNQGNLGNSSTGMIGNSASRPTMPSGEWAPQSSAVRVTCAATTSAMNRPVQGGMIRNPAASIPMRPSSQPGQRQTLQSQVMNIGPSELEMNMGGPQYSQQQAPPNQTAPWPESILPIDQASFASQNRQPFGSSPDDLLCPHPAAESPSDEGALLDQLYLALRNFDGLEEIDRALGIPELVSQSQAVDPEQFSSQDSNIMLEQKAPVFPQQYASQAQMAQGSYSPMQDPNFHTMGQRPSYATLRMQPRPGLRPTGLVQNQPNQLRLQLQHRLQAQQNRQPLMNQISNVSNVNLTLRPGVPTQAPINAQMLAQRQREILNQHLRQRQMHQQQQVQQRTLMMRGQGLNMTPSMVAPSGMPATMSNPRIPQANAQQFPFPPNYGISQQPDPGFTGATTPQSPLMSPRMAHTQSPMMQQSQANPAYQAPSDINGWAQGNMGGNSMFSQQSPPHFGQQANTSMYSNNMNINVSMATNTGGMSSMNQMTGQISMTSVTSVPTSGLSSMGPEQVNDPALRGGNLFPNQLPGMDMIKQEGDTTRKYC

Kd: 175 nM
Substance: Estrogen receptor α LBD (from UniProt P03372)
